For this assay, the target named is […]n, n = 5 (100-mer), non-glycosylated (human). Kind of assay: peptide ELISA, OD 492 nm; limit of the class, member by Table 2; reference: 20-mer. (ELISA stands for enzyme-linked immunosorbent assay.)
Sequence of […]n, n = 5 (100-mer), non-glycosylated (human) (peptide, as listed by the source): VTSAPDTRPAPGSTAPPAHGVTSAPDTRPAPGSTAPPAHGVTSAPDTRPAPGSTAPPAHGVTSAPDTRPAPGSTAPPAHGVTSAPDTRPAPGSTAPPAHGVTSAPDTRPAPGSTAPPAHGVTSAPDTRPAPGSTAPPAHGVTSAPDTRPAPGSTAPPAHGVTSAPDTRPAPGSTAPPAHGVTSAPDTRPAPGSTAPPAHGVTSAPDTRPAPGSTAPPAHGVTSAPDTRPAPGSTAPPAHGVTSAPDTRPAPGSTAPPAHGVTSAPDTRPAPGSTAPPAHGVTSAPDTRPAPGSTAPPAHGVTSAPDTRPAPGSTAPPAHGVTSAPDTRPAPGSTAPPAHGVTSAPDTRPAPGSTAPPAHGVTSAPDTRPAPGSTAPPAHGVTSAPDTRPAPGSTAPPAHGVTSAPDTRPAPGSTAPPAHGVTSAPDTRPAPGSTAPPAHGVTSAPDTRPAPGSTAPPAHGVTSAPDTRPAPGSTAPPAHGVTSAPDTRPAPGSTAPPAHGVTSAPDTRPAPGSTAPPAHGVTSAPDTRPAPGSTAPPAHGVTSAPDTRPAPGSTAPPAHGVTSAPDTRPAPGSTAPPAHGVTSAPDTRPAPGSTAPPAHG
In the case of 214D4 (antibody), the ratio of the optical density 100-mer/20-mer lay in the range of 1.5 to 3.

On to B27.29 (antibody), for which the ratio of the optical density 100-mer/20-mer is 1.5 to 3.

Regarding BC2 (antibody), the ratio of the optical density 100-mer/20-mer is greater than 3.

For C595 (antibody), the ratio of the optical density 100-mer/20-mer was less than 1.5.

With E29 (antibody), the ratio of the optical density 100-mer/20-mer is 1.5 to 3.

Values taken from patent US20150010495A1.
